Earlier results, collected in PMC7179994.
Read-outs that look alike come from different tables or passages of the source.

Key:
[1] = target: VE-cadherin (Homo sapiens) (UniProt P33151)
[2] = target: VE-cadherin (Homo sapiens) (UniProt P33151); remark: listed apart in the source
[3] = target: VLDL receptor (Homo sapiens) (UniProt P98155)

VE-cadherin (Homo sapiens), sequence (P33151 48-599): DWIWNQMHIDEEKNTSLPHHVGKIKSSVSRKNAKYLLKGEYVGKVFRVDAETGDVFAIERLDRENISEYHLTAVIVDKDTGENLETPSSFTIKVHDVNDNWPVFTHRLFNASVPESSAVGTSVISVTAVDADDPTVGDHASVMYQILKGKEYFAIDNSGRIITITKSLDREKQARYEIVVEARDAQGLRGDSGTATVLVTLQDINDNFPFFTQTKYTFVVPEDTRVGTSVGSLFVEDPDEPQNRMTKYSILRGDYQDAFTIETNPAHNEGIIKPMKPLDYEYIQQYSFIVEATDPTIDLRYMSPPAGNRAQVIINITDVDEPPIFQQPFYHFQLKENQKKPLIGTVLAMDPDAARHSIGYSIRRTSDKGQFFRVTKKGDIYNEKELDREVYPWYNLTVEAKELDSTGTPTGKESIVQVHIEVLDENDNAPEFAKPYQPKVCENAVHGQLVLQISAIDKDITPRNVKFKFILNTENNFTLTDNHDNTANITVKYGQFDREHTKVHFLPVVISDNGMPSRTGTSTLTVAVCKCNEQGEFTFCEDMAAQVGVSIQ
fibrin β15–42 15-42, sequence (P02675 15-42): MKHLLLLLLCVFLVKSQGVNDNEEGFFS
(β15–44)2 15-44, sequence (P02675 15-44): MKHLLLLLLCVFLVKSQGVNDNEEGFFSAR

Substance: (β15–44)2 15-44 (from UniProt P02675)
- Kd [1]: 715 nM

Substance: fibrin β15–42 15-42 (from UniProt P02675)
- Kd [2]: 267000 nM

Substance: fibrin (from UniProt P02671)
- Kd [3]: 9.2 nM
